# According to article PMC9917443:
# B1: APP17 (peptide)
# peptide: Ac-DDSDVWWGGADTDYADG-NH2
# B2: sc-APP17 (peptide)
# peptide: Ac-DWGADTVSGDGYDAWDD-NH2
# Biological target: purified recombinant SD1/2 protein
# Assay: ITC; peptide (300 μM in the syringe) injected into SD1/2 protein (30 μM) in the cell; 25°C; 20 mM NaPi (pH 6.8), 50 mM NaCl, 0.5 mM EDTA; one-site binding model
Binder,Kd,stoichiometry N
B1,543 nM,1.05
B2,> 300000 nM,–
